We go through two proteins from article PMC6203986, “Crystal structure of carbonic anhydrase CaNce103p from the pathogenic yeast Candida albicans” (BMC Structural Biology, 2018).

The data set deals with the molecule itself. The data set is described as follows: SEC; HR200 Increase (Superdex 200 Increase 10/300 GL) column in 10 mM Tris-Cl, pH 8, 20 mM β-mercaptoethanol, 0.5 ml/min, calibrated with molecular weight markers; for Δ29 100 μl of 1.0 mg/ml injected; self-association. For orientation: Size exclusion chromatography separates by hydrodynamic size, large species first.

Broadly, the stoichiometry N is a count of units in the complex or per binding partner.

Where “and” joins values, the source holds several entries; their conditions need not be identical. Equal values may be shown once.

B1: Δ29_CaNce103p, CaNce103p lacking the first 29 amino acids (domain or fragment)
chain: DNNNNLNGMNNTIKTHPVRVSSGNHNNFPFTLSSESTLQDFLNNNKFFVDSIKHNHGNQIFDLNGQGQSPHTLWIGCSDSRAGDQCLATLPGEIFVHRNIANIVNANDISSQGVIQFAIDVLKVKKIIVCGHTDCGGIWASLSKKKIGGVLDLWLNPVRHIRAANLKLLEEYNQDPKLKAKKLAELNVISSVTALKRHPSASVALKKNEIEVWGMLYDVATGYLSQVEIPQDEFEDLFHVHDEHDEEEYNPH
notes: Carbonic anhydrase Nce103p of Candida albicans (strain HE109) lacking the first 29 amino acids; C-terminus at residue 281; no tag (stop codon kept); source: E. coli BL23(DE3), purified (HiTrap Ni column, MonoQ)
In the case of B1, the “stoichiometry N” value was 4 and 2.

B2: CaNce103p, carbonic anhydrase from Candida albicans, wild-type full length (enzyme)
chain: MGRENILKYQLEHDHESDLVTEKDQSLLLDNNNNLNGMNNTIKTHPVRVSSGNHNNFPFTLSSESTLQDFLNNNKFFVDSIKHNHGNQIFDLNGQGQSPHTLWIGCSDSRAGDQCLATLPGEIFVHRNIANIVNANDISSQGVIQFAIDVLKVKKIIVCGHTDCGGIWASLSKKKIGGVLDLWLNPVRHIRAANLKLLEEYNQDPKLKAKKLAELNVISSVTALKRHPSASVALKKNEIEVWGMLYDVATGYLSQVEIPQDEFEDLFHVHDEHDEEEYNPH
notes: Carbonic anhydrase Nce103p of Candida albicans, full length (C-terminus at residue 281); gene amplified from genomic DNA of strain HE109; stop codon kept so that no His-tag is attached; purified on Ni through four natural C-terminal histidines; also called wt; source: E. coli BL23(DE3), purified (HiTrap Ni column, MonoQ)
Take B2: the “stoichiometry N” value was 2 and 4.
